Results from patent US7399747B1, “Peptides carrying substances across the blood brain barrier” (SYNT:EM, priority 1998, dated 2008).
“Also recorded” adds a separate entry of the source. Blank lines part the entries; values can stand above or below the molecule they belong to. *1 amine or outer side, *2 acyl side, *3 side chain or, on linkers, in order; H or OH if unused. Where a SMILES comes first, the peptide text is derived from it. Where no end group is shown, it is not given here. The star is where a group is joined. Doxorubicin(3'-N) = COc1cccc2c1C(=O)c1c(O)c3c(c(O)c1C2=O)C[C@@](O)(C(=O)CO)C[C@@H]3O[C@H]1C[C@H](N*)[C@H](O)[C@H](C)O1; Suc = O=C(CCC(=O)[*:2])[*:1]

Legend:
[1] = Capillary depletion after cerebral perfusion and rinsing (distribution volume Vd); format: in vivo, rat
Description: This method is used to measure the distribution of products between the cerebral parenchyma and endothelial cells, Triguero et al., 1990, J. Neurochem. 54, 1882-1888). After 60 seconds of perfusion, that may or may not be followed by 30 seconds rinsing, the right hemisphere is removed, its meninges and choroid plexus are removed, and it is then homogenized in 3.5 ml of Hepes buffer (10 mM of Hepes, 141 mM of NaCl, 4 mM of KCl, 1 mM of NaH2PO4, 2.8 mM of CaCl2, 1 mM of MgSO4 and 10 mM of D-glucose, pH=7.4). After grinding in the potter, 4 ml of solution containing 4% of Dextran (PM=76900) are added and the mix is stirred vigorously in order to obtain a […]. All these operations are carried out at 4° C. in less than 5 minutes. After taking a sample of the homogenate thus obtained, the homogenate is then put into the centrifuge for 15 minutes at 5400 g in order to separate the endothelial cells present in the base of the cerebral parenchyma that remained in the floating material. The results are expressed as distribution volumes in the floating material and the base.
This method measures the distribution of products between the cerebral parenchyma and endothelial cells. Capillary depletion is carried out after 60 seconds perfusion followed by 30 seconds rinsing. The distribution volumes (Vd) in endothelial cells and the cerebral parenchyma are expressed in microliters/g.

[2] = In situ cerebral perfusion, penetration into the brain (influx constant Kin); format: in vivo, rat
Description: The rats are perfused with the buffer containing free doxorubicin or compounds No. 1 or 2. The doxorubicin is radio-marked with carbon 14 in each product (specific activity=9.4 microCi/mg, Amersham, France). The products are perfused at a concentration of 0.33 microCi/ml or 0.035 mg/rat.
The heart is stopped by cutting the ventricles immediately before perfusion starts, in order to prevent reflux of the perfusate during the perfusion.
The brain is removed quickly after decapitation. The brain is dissected on a mirror into 8 regions, namely Hypothalamus (HY), frontal Cortex (CF), Mesencephale (MS), Occipital Cortex (CO), Parietal Cortex (CP), Thalamus (TH), Hippocampus (HP), Striatum (ST), which are placed in previously calibrated glass flasks and then weighed. These structures and 50 microliters of perfusate are digested for two hours in 1 ml of soluene at 60° C. A scintillating cocktail (10 ml, Pico-fluor, Packard) is added to each sample and the quantity of tracers contained in them is measured by double counting in liquid scintillation (Packard, Tricarb, 1900TR).
This study consisted of comparing penetration in the HEB of doxorubicin alone with doxorubicin using compounds numbers 1 and 2 as vectors. After 60 seconds perfusion in the buffer, the penetration of products was estimated using the influx constant or Kin in microl/sec/g. […]

[3] = Hot Plate model (latency time); format: in vivo, mouse; settings: for Latency time: 2 mg/Kg i.v. (dalargine equivalent), 5 minutes after injection; for Effect on latency time / analgesic activity: i.v. injection, latency measured 0 to 90 minutes
Description: For the purposes of this study, the biological activity of dalargine alone was compared with the biological activity of dalargine vectorised with SynB1. Consequently, the “Hot Plate” model in the mouse was used. In this model, the mouse is placed on a hot plate and the time that the mouse takes to react to heat is measured as the “latency time”.
2 mg/Kg of each product was injected intravenously into the mouse (the dose corresponding to the quantity of dalargine). After times varying from 0 to 90 minutes, the latency time was measured. […] The latency time is constant. […] For example 5 minutes after injection, the latency time of vectorised dalargine is 22.75 seconds, whereas it is only 7.6 seconds for dalargine alone.

[4] = Intravenous injection in CD1 mice, whole-body autoradiography, brain; settings: i.v. 2 mg DXR base/kg
Description: In the case of compound No. 2, the CD1 mouse is injected intravenously with compound No. 2 or with free doxorubicin at a dose of 2 mg/kg (equivalent in doxorubicin). Doxorubicin is marked with carbon 14 (about 3 microCi is injected per mouse). The mouse is sacrificed after 15 minutes, 2 hours and 8 hours, and the product quantity in each organ is analysed using the “Whole-body autoradiography” technique. The quantity of radioactivity in each organ is then expressed as a quantity of product per gram of organ. We used one mouse per group in this experiment.
The total radioactivity in the brain is analysed using the “Whole body autoradiography” method and is expressed as a product quantity per gram of brain.

[5] = Intravenous injection in NMRI-nude mice, radioactivity in the brain; settings: for Product quantity in brain: i.v. 2.5 mg DXR base/kg
Description: NMRI-nude mice are injected intravenously with compound No. 1 or doxorubicin alone at a dose of 2.5 mg/kg (equivalent in doxorubicin). The doxorubicin is marked with carbon 14 (about 0.5 microCi is injected per mouse). The mice are sacrificed after 1, 5, 15, 30, 60, 180, 480 and 1360 minutes. The organs are then removed and counted. The quantity of radioactivity in each organ is then expressed as the quantity of product per gram of organ. In this study, we used five mice for each period of time.
After intravenous injection of compound No. 1, nude mice were sacrificed at different times and the total radioactivity in the brain was counted and expressed as a quantity of product per gram of brain.

HEB = assay: Tolerance to products: integrity of HEB by [3H]-sucrose distribution volume during in situ cerebral perfusion; settings: co-perfused with [3H]-sucrose
Text: This is a fast and sensitive method of evaluating the penetration of various compounds into the central nervous system (Takasato et al., 1984, Am. J. Physiol. 247, 484-493; Allen et al., 1997, Pharm Res. 14, 337-341). Two month old male Sprague-dawley rats (250-350 g. Iffa-Credo; l'Arbresle, France) are anaesthetised. After exposure of the common carotid, the right external carotid artery is bound at the junction with the internal carotid and the common carotid is bound between the heart and the site at which the catheter is installed (polyethylene catheter, ID=0.76). This catheter, previously filled with a solution of heparin (100 units/ml) is inserted into the common carotid. Rats are perfused with the perfusion buffer (128 mM NaCl, 24 mM NaHCO3, 4.2 mM KCl, 2.4 mM NaH2PO4, 1.5 mM CaCl2, 0.9 mM MgSO4, and 9 mM D-glucose). This buffer is filtered and then is bubbled using a mix containing 95% O2/5% CO2 in order to keep the pH close to 7.4 and to supply oxygen to the brain during the perfusion.
It is estimated that this volume must not exceed […]. For larger volumes, it is concluded that the permeability of HEB is abnormal.
Doxorubicin, compounds numbers 1 and 2 were injected in the presence of sucrose and the integrity of the HEB is measured.

[6] = for Reduction of the influx constant after rinsing: 60 s perfusion then 30 s rinsing with buffer without tracer
Description: For rats on which the rinsing step is carried out, the catheter is inserted into the common carotid as described above, and is then connected to a 4-way valve (opposite passages) (Hamilton, USA) connected to two syringes; one containing the radio-marked tracer (syringe A) and the other the buffer alone (syringe B). Once the catheter is in position and the connections have been made correctly, the thoracic cage of the rat is opened and the heart is cut. The contents of syringe A are then immediately perfused at a rate of 10 ml/min. After 60 seconds, the contents of syringe B are injected in turn at the same rate. The rat is decapitated after 30 seconds of rinsing.
Rinsing of cerebral capillaries by perfusion of the buffer without tracer for 30 seconds eliminates the fraction of the product being studied adhering to the luminal membrane of endothelial cells, if any.

[7] = 60 seconds perfusion followed by 30 seconds rinsing

Molecule: COc1cccc2c1C(=O)c1c(O)c3c(c(O)c1C2=O)C[C@@](O)(C(=O)CO)C[C@@H]3O[C@H]1C[C@H](NC(=O)CCC(=O)N[C@@H](CCCNC(=N)N)C(=O)N[C@@H](CCCNC(=N)N)C(=O)N[C@@H](CC(C)C)C(=O)N[C@@H](CO)C(=O)N[C@@H](Cc2ccc(O)cc2)C(=O)N[C@@H](CO)C(=O)N[C@@H](CCCNC(=N)N)C(=O)N[C@@H](CCCNC(=N)N)C(=O)N[C@@H](CCCNC(=N)N)C(=O)N[C@@H](Cc2ccccc2)C(=O)O)[C@H](O)[C@H](C)O1 [No. 5, Doxo-CO—(CH2)2—CO-RRLSYSRRRF] ({Doxorubicin(3'-N)-Suc}-RRLSYSRRRF-OH)
Penetration in the cerebral parenchyma compared with free doxorubicin [1, 7]: 50 times
Vd in the cerebral parenchyma [1, 7]: 98.32 µL/g
Increase of transfer into the brain (Kin) compared with doxorubicin alone ([2]; 60 seconds perfusion in the buffer): five times

Molecule: Y-(D)A-GFLR-S-S-RGGRLSYSRRRFSTSTGR [dal-SynB1]
Latency time [3]: 22.75 s
Effect on latency time / analgesic activity [3]: an increase in the latency time is observed
Transfer into the brain (Kin) compared with dalargine alone ([2]; 60 seconds perfusion in the buffer (FIG. 7)): considerably increases its transfer into the brain

Product quantity in brain ([4]; 15 min): 1.24 ug/g of brain
Product quantity in brain ([4]; 120 min): 0.98 ug/g of brain
Product quantity in brain ([4]; 480 min): 0.67 ug/g of brain
Product quantity in brain ([5]; 1 min): 0.14 microg/g of brain
Product quantity in brain ([5]; 5 min): 0.05 microg/g of brain
Product quantity in brain ([5]; 15 min): 0.04 microg/g of brain
Product quantity in brain ([5]; 30 min): 0.05 microg/g of brain
Product quantity in brain ([5]; 60 min): 0.04 microg/g of brain
Product quantity in brain ([5]; 180 min): 0.03 microg/g of brain
Product quantity in brain ([5]; 480 min): 0.04 microg/g of brain
Product quantity in brain ([5]; 1360 min): 0.01 microg/g of brain
Vd in the cerebral parenchyma [1, 7]: 1.75 µL/g
Reduction of the influx constant after rinsing [6]: about 25%
Molecule: COc1cccc2c1C(=O)c1c(O)c3c(c(O)c1C2=O)C[C@@](O)(C(=O)CO)C[C@@H]3O[C@H]1C[C@H](N)[C@H](O)[C@H](C)O1 [doxorubicin, Doxorubicin, reference compound]
State of the HEB (HEB; perfused dose 0.07 mg): Integral

Vd in the cerebral parenchyma ([1]; 30 seconds perfusion followed by 30 seconds rinsing): 3.94 µL/g
Molecule: CC1(C)S[C@@H]2[C@H](NC(=O)Cc3ccccc3)C(=O)N2[C@H]1C(=O)O [benzylpenicillin, Benzylpenicillin, reference compound]

Molecule: RGGRLSYSRRRFSTSTGR (PEPTIDE (1)..(18) Syn B1) [SynB1]
Effect on latency time / analgesic activity [3]: no analgesic activity

Molecule: Doxo-CO—(CH2)2—CO-RGGRLSYSRRRFSTSTGR ({doxorubicin-Suc}-RGGRLSYSRRRFSTSTGR) [Compound No. 1]
Ratio of compound No. 1/doxorubicin (brain quantity) ([5]; 1 min after i.v. injection): 3.4
Ratio of compound No. 1/doxorubicin (brain quantity) ([5]; 5 min after i.v. injection): 3.6
Ratio of compound No. 1/doxorubicin (brain quantity) ([5]; 15 min after i.v. injection): 10.5
Ratio of compound No. 1/doxorubicin (brain quantity) ([5]; 30 min after i.v. injection): 5
Ratio of compound No. 1/doxorubicin (brain quantity) ([5]; 60 min after i.v. injection): 3
Ratio of compound No. 1/doxorubicin (brain quantity) ([5]; 180 min after i.v. injection): 1
Product quantity in brain ([5]; 1 min): 0.48 microg/g of brain
Product quantity in brain ([5]; 5 min): 0.18 microg/g of brain
Product quantity in brain ([5]; 15 min): 0.42 microg/g of brain
Product quantity in brain ([5]; 30 min): 0.25 microg/g of brain
Product quantity in brain ([5]; 60 min): 0.12 microg/g of brain
Product quantity in brain ([5]; 180 min): 0.03 microg/g of brain
Product quantity in brain ([5]; 480 min): 0.02 microg/g of brain
Product quantity in brain ([5]; 1360 min): 0.01 microg/g of brain
State of the HEB (HEB; perfused dose 0.05 mg): Integral
State of the HEB (HEB; perfused dose 0.8 mg): does not open the HEB abnormally; also recorded: Integral
Vd in the cerebral parenchyma [1, 7]: 28.5 µL/g
Fraction of compound found in the cerebral parenchyma ([1]; 1 minute perfusion followed by 30 seconds rinsing): About 60%
Increase of penetration after rinsing compared with free doxorubicin (factor) ([6]; 60 s perfusion then 30 s rinsing): 4
Reduction of the influx constant after rinsing [6]: 45%

Molecule: Y-(D)A-GFLR [dalargine, reference compound]
Latency time [3]: 7.6 s
Effect on latency time / analgesic activity [3]: no effect was observed
